Test results taken from paper PMC7794297.

B1: TrxR 2: recombinant human thioredoxin reductase 2, selenoenzyme (protein, UniProt Q9NNW7 37-524, looked up)
Thioredoxin reductase 2, …: QRDYDLLVVGGGSGGLACAKEAAQLGRKVAVVDYVEPSPQGTRWGLGGTCVNVGCIPKKLMHQAALLGGLIQDAPNYGWEVAQPVPHDWRKMAEAVQNHVKSLNWGHRVQLQDRKVKYFNIKASFVDEHTVCGVAKGGKEILLSADHIIIATGGRPRYPTHIEGALEYGITSDDIFWLKESPGKTLVVGASYVALECAGFLTGIGLDTTIMMRSIPLRGFDQQMSSMVIEHMASHGTRFLRGCAPSRVRRLPDGQLQVTWEDSTTGKEDTGTFDTVLWAIGRVPDTRSLNLEKAGVDTSPDTQKILVDSREATSVPHIYAIGDVVEGRPELTPIAIMAGRLLVQRLFGGSSDLMDYDNVPTTVFTPLEYGCVGLSEEEAVARHGQEHVEVYHAHYKPLEFTVAGRDASQCYVKMVCLREPPQLVLGLHFLGPNAGEVTQGFALGIKCGASYAQVMRTVGIHPTCSEEVVKLRISKRSGLDPTVTGCUG
5% (mol) catalyst, 2.5% (v/v) DMSO, 190 μM 3, Tris pH 7.8, 6 °C, uncatalyzed 0.014 ± 0.001
  Kobs: 0.035 ± 0.003 M⁻¹ s⁻¹
5% mol
  time until total completion of homodimerization: 5 days
